Assay results published in publication PMC7642358 (Nature Communications, 2020).
Numbering of substitutions follows the chain as printed.

B1: sybody 23 (Sb23) (VHH)
VHH: QVQLVESGGGLVQAGGSLRLSCAASGFPVESENMHWYRQAPGKEREWVAAIYSTGGWTLYADSVKGRFTISRDNAKNTVYLQMNSLKPEDTAVYYCAVQVGYWYEGQGTQVTVS
notes: source: E. coli MC1061 F-, periplasmic extract, purified (Ni-NTA, desalted in PBS)
B2: 85 (VHH)
VHH: QVQLVESGGGSVQAGGSLRLSCAASGSISSITYLGWFRQAPGKEREGVAALVTSRGKTYYADSVKGRFTVSLDNAKNTVYLQMNSLKPEDTALYYCAAASWGYTWPLYTYDYWYWGQGTQVTVS
B3: 75 (VHH)
VHH: QVQLVESGGGSVQAGGSLRLSCAASGYINQIYYLGWFRQAPGKEREGVAALNTYQGQTYYADSVKGRFTVSLDNAKNTVYLQMNSLKPEDTALYYCAAARWGRDEPLYHYYYSYWGQGTQVTVS
B4: 94 (VHH)
VHH: B3 VHH with N29T, Q30M, Y32E, Y54H, Q55T, Q57G, D104Y, Y108H, H109Y, Y110A
B5: 79 (VHH)
VHH: B3 VHH with N29H, Q30T, Y32E, N52Y, Y54L, Q55K, E105T, Y108H, H109Y, Y110Q
B6: 90 (VHH)
VHH: B3 VHH with Y27A, N52S, Y54K, Q55Y, Q57E, D104Q, E105Y, Y108T, H109F, Y110V
B7: 86 (VHH)
VHH: QVQLVESGGGSVQAGGSLRLSCAASGTIASIIYLGWFRQAPGKEREGVAALNTWNGKTYYADSVKGRFTVSLDNAKNTVYLQMNSLKPEDTALYYCAAAYSGMWYPLSNEHYGYWGQGTQVTVS
B8: 84 (VHH)
VHH: QVQLVESGGGSVQAGGSLRLSCAASGYIKHIEYLGWFRQAPGKEREGVAALKTSSGSTYYADSVKGRFTVSLDNAKNTVYLQMNSLKPEDTALYYCAAARYGRSDPLHYHEYSYWGQGTQVTVS
B9: 88 (VHH)
VHH: QVQLVESGGGLVQAGGSLRLSCAASGFPVWAHHMLWYRQAPGKEREWVAAIASWGANTAYADSVKGRFTISRDNAKNTVYLQMNSLKPEDTAVYYCNVKDSGQYRENYDYWGQGTQVTVS
B10: 78 (VHH)
VHH: QVQLVESGGGSVQAGGSLRLSCAASGYIKSIKYLGWFRQAPGKEREGVAALMTRYGETYYADSVKGRFTVSLDNAKNTVYLQMNSLKPEDTALYYCAAANYGNNWPLTGVNYWYWGQGTQVTVS
B11: 81 (VHH)
VHH: QVQLVESGGGSVQAGGSLRLSCAASGYIHRIEYLGWFRQAPGKEREGVAALSTISGNTYYADSVKGRFTVSLDNAKNTVYLQMNSLKPEDTALYYCAAARFGRAYPLHYYQYTYWGQGTQVTVS
B12: 77 (VHH)
VHH: QVQLVESGGGSVQAGGSLRLSCAASGSISSITYLGWFRQAPAKSVRAVAALDTEQGETYYADSVKGRFTVSLDNAKNTVYLQMNSLKPEDTALYYCAAANQHGGYYPLDSAWYTYWGQGTQVTVS
B13: 82 (VHH)
VHH: QVQLVESGGGSVQAGGSLRLSCAASGTINSIHYLGWFRQAPGKEREGVAALDTYIGYTYYADSVKGRFTVSLDNAKNTVYLQMNSLKPEDTALYYCAAARWGRTSPLHWYYYTYWGQGTQVTVS
B14: 83 (VHH)
VHH: QVQLVESGGGSVQAGGSLRLSCAASGGITHIVYLGWFRQAPGKEREGVAALMTRWGTTYYADSVKGRFTVSLDNAKNTVYLQMNSLKPEDTALYYCAAAKYGQNFPLSYHAYRYWGQGTQVTVS
B15: 97 (VHH)
VHH: QVQLVESGGGSVQAGGSLRLSCAASGAISTIEYLGWFRQAPGREREGVAALYTERGYTYYADSVKGRFTVSLDNAKNTVYLQMNSLKPEDTALYYCAAARYGHAQAPLHYFWYGYWGQGTQVTVS
B16: 93 (VHH)
VHH: QVQLVESGGGSVQAGGSLRLSCAASGHIAQIEYLGWFRQAPGKEREGVAALSTNQGYTYYADSVKGRFTVSLDNAKNTVYLQMNSLKPEDTALYYCAAARWGRTYPLSYMAYTYWGQGTQVTVS
B17: sybody 100 (Sb100) (VHH)
VHH: B2 VHH with R55D, K57R, S100N, T104S, T109Q, Y110T, D111E
notes: as for B1
B18: sybody 95 (Sb95) (VHH)
VHH: B10 VHH with Y27N, K29Y, S30N, N100S, N103A, T108V, G109S, V110A, N111A, W113T
notes: as for B1
B19: sybody 76 (Sb76) (VHH)
VHH: QVQLVESGGGLVQAGGSLRLSCAASSFPVDTYHMAWYRQAPGKEREWVAAIVSWGWRTYYADSVKGRFTISRDNAKNTVYLQMNSLKPEDTAVYYCNVKDIGAQEVHYDYWGQGTQVTVS
notes: as for B1
B20: sybody 42 (Sb42) (VHH)
VHH: QVQLVESGGGLVQAGGSLRLSCAASGFPVYNTWMEWYRQAPGKEREWVAAITSWGFKTYYADSVKGRFTISRDNAKNTVYLQMNSLKPEDTAVYYCNVKDEGYTGYYYDYWGQGTQVTVS
notes: as for B1
B21: sybody 12 (Sb12) (VHH)
VHH: QVQLVESGGGLVQAGGSLRLSCAASGFPVQLYWMEWYRQAPGKEREWVAAITSDGDYTEYADSVKGRFTISRDNAKNTVYLQMNSLKPEDTAVYYCYVKVGEWYYGQGTQVTVS
notes: as for B1

target: T1, SARS-CoV-2 spike receptor-binding domain (2019-nCoV RBD-SD1, residues 319–566) (SARS-CoV-2, UniProt P0DTC2); experiment: thermal shift (nanoDSF); details: both partners purified

Row | Binder | increase of the melting temperature of RBD
1 | B1 | ~10 degrees

target: T1, SARS-CoV-2 spike receptor-binding …; experiment: not given; details: not given

Row | Binder | binding result
2 | B2 | binds
3 | B3 | binds
4 | B4 | binds
5 | B5 | binds
6 | B6 | binds
7 | B7 | binds
8 | B8 | binds
9 | B9 | binds
10 | B10 | binds
11 | B11 | binds
12 | B12 | binds
13 | B13 | binds
14 | B14 | binds
15 | B15 | binds
16 | B16 | binds

target: T1, SARS-CoV-2 spike receptor-binding …; experiment: BLI; details: both partners purified

Row | Binder | Kd
17 | B17 | 38.7 nM
18 | B1 | 10.6 nM
19 | B18 | 43.9 nM
20 | B19 | 58.1 nM
21 | B20 | 5 nM
22 | B21 | 24.2 nM
